{
  "source": "paper PMC9437722",
  "about": "“Identification of UDP-rhamnosyltransferases and UDP-galactosyltransferase involved in flavonol glycosylation in Morella rubra” (Horticulture Research, 2022)",
  "molecules": {"B1": {"name": "MrUGT78R2 (Morella rubra) (protein)", "chain": "MTQSSQDQHVAVLAFPLGCHPWPLLNLACKLACAAPNVRFSFFNTPKSNSKLFSTSQAEPPQNLKAYDVADGVPEGHVFTPGNPVEELELFLNAAPESFRNGMDMAVAETGREISCLLTDAFLVFASEMALDMHAKWVPFWVPAPHSLSAHMYSDLIYETYTNVCGGGEDGINTSDGDNYGTGTLGGIKPIDKTLDVIPGLSIMRFRDLPQQLLLGDFNSSLFSSALYRIGAVLPQASAVIMNSFQELNPATLTDDLKSKFQNLLYVGFLTLTLPPPPPPPSHSDATGCLPWLDDQKPTSVAYISFGTVSAVPPHEFVALAEALEASHVPFLWSLRDNFKEILPTGFLQRTRTQGKIVPWAPQAHVLAHKAVGVYVTHCGYNSVFESVVGEVPMICRPILGDNMFNGRMVEDVWGIGVGVEGGVFTKNGMLKSLEVVLGEEHGKRMREKIRDIKDLVVKAAGPTGIASKDFNTLVEVISK", "notes": "full length, 480 residues (ORF 1443 bp), pET-32a(+) in E. coli BL21(DE3)pLysS, HisTALON purified, tag cleavage not mentioned"}},
  "key": {"MrUGT78W1": {"tested_on": "T1, MrUGT78W1", "T1 construct": "gene UGT78W1; full length, 469 residues (ORF 1410 bp), pET-32a(+) in E. coli BL21(DE3)pLysS, HisTALON purified, tag cleavage not mentioned; gene on chromosome 7", "assay": "UDP-Glo glycosyltransferase assay, luminescence", "type": "biochemical, Morella rubra", "settings": "650 μM UDP-Gal, Tris-HCl 100 mM pH 8.5, 30°C", "from_the_text": "UDP-Glo glycosyltransferase assay, luminescence on MrUGT78W1"}, "[1]": {"substrate": "O=c1c(O)c(-c2ccc(O)c(O)c2)oc2cc(O)cc(O)c12", "assay": "UDP-Glo glycosyltransferase assay, luminescence", "type": "biochemical, Morella rubra", "settings": "650 μM UDP-Rha, Tris-HCl 100 mM pH 7.5, 35°C", "from_the_text": "(§1) UDP-Glo glycosyltransferase assay, luminescence on MrUGT78R2"}, "[2]": {"substrate": "O=c1c(O)c(-c2ccc(O)cc2)oc2cc(O)cc(O)c12", "assay": "UDP-Glo glycosyltransferase assay, luminescence", "type": "biochemical, Morella rubra", "settings": "650 μM UDP-Rha, Tris-HCl 100 mM pH 7.5, 35°C", "from_the_text": "as §1"}, "purified protein": {"substrate": "O=c1c(O)c(-c2cc(O)c(O)c(O)c2)oc2cc(O)cc(O)c12", "assay": "purified protein", "settings": "650 μM UDP-Rha, Tris-HCl 100 mM pH 7.5, 35°C"}},
  "data": [
    {"molecule": "O=c1c(O)c(-c2ccc(O)cc2)oc2cc(O)cc(O)c12", "note": "[K, Kaempferol]", "values": [
      {"measurement": "Km", "setting": "MrUGT78W1", "result": "50 ± 4.63", "unit": "µM"}
    ]},
    {"molecule": "O=c1c(O)c(-c2cc(O)c(O)c(O)c2)oc2cc(O)cc(O)c12", "note": "[M, Myricetin]", "values": [
      {"measurement": "Km", "setting": "MrUGT78W1", "result": "13.7 ± 0.92", "unit": "µM"}
    ]},
    {"molecule": "O=c1c(O)c(-c2ccc(O)c(O)c2)oc2cc(O)cc(O)c12", "note": "[Q, Quercetin]", "values": [
      {"measurement": "Km", "setting": "MrUGT78W1", "result": "93.5 ± 2.69", "unit": "µM"}
    ]},
    {"molecule": "B1", "values": [
      {"measurement": "Km", "setting": "[1]", "result": "61.81 ± 8.74", "unit": "µM"},
      {"measurement": "kcat/Km", "setting": "[1]", "result": "45900 ± 4500", "unit": "M⁻¹ s⁻¹"},
      {"measurement": "Km", "setting": "[2]", "result": "58.11 ± 5.52", "unit": "µM"},
      {"measurement": "kcat/Km", "setting": "[2]", "result": "37800 ± 2500", "unit": "M⁻¹ s⁻¹"},
      {"measurement": "Km", "setting": "purified protein", "result": "66.78 ± 3.56", "unit": "µM"},
      {"measurement": "kcat/Km", "setting": "purified protein", "result": 34700, "unit": "M⁻¹ s⁻¹"}
    ]}
  ]
}
